According to patent US5248605:

Tested on: HpaII restriction endonuclease (R.HpaII) (Haemophilus parainfluenzae ATCC 49669)
Experiment: cleavage_in_vitro
Details: IPTG-induced E. coli extract; 1x REact 8 buffer, 30 min 37 C; HpaII digest pattern on agarose gel

Substance: phage lambda DNA
- activity (units per g wet cells): > 50000
